Paper PMC4058522, “Structural Basis for Phosphorylation-Dependent Recruitment of Tel2 to Hsp90 by Pih1” (Structure(London, England:1993), 2014)

Columns and labels:
[1] = target: yeast Hsp90, intact (full-length) dimer (yeast) (UniProt P02829); assay: ITC; 600 μM Tah1 injected into 40 μM yeast Hsp90; 10 mM Tris pH 7.5, 5 mM NaCl; 10°C or 30°C (not told which)
[2] = target: mouse Pih1 PIH domain 1-200 (His-mPih1 1-200) (mouse) (UniProt Q9CQJ2); assay: ITC; peptides at 350 μM injected into 30 μM Pih1 (mPIH domain) at 30°C; 20 mM Tris pH 7.5, 5 mM NaCl
[3] = target: pre-assembled full-length yeast Tah1-Pih1 complex (yeast) (UniProt P25638); assay: ITC; 301 μM yeast Hsp90 injected into 25 μM yeast Tah1-Pih1 complex; 10 mM Tris pH 7.5, 5 mM NaCl; 10°C or 30°C (not told which)
[4] = target: human Spagh/RPAP3 120-395 (tandem TPR region) (human) (UniProt Q9H6T3); assay: ITC; 500 μM yeast Hsp90 injected into 20 μM Spagh/RPAP3 120-395; 10 mM Tris pH 7.5, 5 mM NaCl; 10°C or 30°C (not told which)
Sequence of human Spagh/RPAP3 120-395 (tandem TPR region) (human) (Q9H6T3 120-395): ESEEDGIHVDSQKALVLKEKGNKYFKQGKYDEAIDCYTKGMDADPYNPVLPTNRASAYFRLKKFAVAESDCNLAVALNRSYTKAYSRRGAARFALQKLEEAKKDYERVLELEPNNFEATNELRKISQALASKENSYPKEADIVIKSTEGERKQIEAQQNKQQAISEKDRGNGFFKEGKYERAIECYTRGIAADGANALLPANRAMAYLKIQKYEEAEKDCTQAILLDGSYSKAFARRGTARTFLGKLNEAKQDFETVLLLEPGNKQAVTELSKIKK

Sequence of mouse Pih1 PIH domain 1-200 (His-mPih1 1-200) (mouse) (Q9CQJ2 1-200): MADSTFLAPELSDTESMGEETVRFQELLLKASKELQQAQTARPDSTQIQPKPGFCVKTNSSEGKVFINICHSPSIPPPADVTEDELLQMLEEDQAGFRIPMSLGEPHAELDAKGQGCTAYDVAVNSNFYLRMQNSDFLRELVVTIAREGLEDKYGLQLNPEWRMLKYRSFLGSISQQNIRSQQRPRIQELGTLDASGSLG

Row | Substance | Kd [2] | further results
1 | Tah1 (yeast, full-length) (from UniProt P25638 1-111) (natural protein) |  | Kd [1]: 5.9 µM; stoichiometry N (Tah1 per Hsp90 chain) [1]: 1
2 | mouse Tel2 484-496 peptide, bis-phosphorylated pSer 486 and pSer 488 | 37.9 µM | 
3 | mouse Tel2 484-496 peptide, pSer 486 | > 100 µM | 
4 | yeast Hsp90, intact (full-length) dimer (from UniProt P02829 1-709) (natural protein) |  | Kd [3]: 4 µM; Kd [4]: 6.8 µM; stoichiometry N ([4]; scale: Hsp90 chains per Spagh/RPAP3): 2

Continued by falling Kd [2], values first:

Row | Kd [2] | Substance | further results
5 | 15.3 µM | mouse Tel2 484-496 peptide, pSer 488 | 
6 | 0.39 µM | mouse Tel2 484-496 peptide, pSer 492 | 
7 | 0.17 µM | mouse Tel2 484-496 peptide, bis-phosphorylated pSer 488 and pSer 492 (QGSDpSELDpSDDEF) | 
